Blank lines part the entries; values can stand above or below the binder they belong to.
How the values were obtained:
[1] = biological target: T1, recombinant human CD3 epsilon/delta heterodimer (human, UniProt P07766 23-126; P04234 22-105); test: Octet BLI, mAb on FAB2G sensor, hCD3 E/D 200-50 nM; R^2 0.96
T1 construct: Recombinant protein in solution (200-50 nM) in the Octet assay; also called hCD3 E/D; human CD3E/D
Experimental: Samples were evaluated by flow cytometry analysis against Jurkat and human Pan-T cells (FIG. 1B) as well as by Octet against recombinant human CD3 proteins to evaluate apparent affinities and binding off-rates (Table 6, infra).

[2] = biological target: T2, recombinant human CD3 epsilon/gamma heterodimer (human, UniProt P07766 23-126; P09693 23-116); test: Octet BLI, mAb on FAB2G sensor, hCD3 E/G 200-50 nM; R^2 0.34
T2 construct: Recombinant protein in solution (200-50 nM) in the Octet assay; also called hCD3 E/G
T2 sequence (P07766 23-126, chain 1 of 2): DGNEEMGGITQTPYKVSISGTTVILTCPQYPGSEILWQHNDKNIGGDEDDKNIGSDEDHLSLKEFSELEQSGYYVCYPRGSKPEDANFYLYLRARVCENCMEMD
T2 sequence (P09693 23-116, chain 2 of 2): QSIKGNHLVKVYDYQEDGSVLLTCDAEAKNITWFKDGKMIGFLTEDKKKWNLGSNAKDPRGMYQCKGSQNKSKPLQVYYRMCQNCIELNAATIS

recombinant CD3 proteins [3] = biological target: T3, recombinant CD3 proteins (UniProt P07766 23-126); test: Octet BLI, recombinant CD3; Full R^2 0.984
T3 construct: elsewhere it uses human CD3 E/D and E/G heterodimers
T3 sequence (P07766 23-126): as the sequence (P07766 23-126, chain 1 of 2) above

recombinant CD3 proteins [4] = biological target: T3, recombinant CD3 proteins; test: Octet BLI, recombinant CD3; Full R^2 0.985
recombinant CD3 proteins [5] = biological target: T3, recombinant CD3 proteins; test: Octet BLI, recombinant CD3; Full R^2 0.989
recombinant CD3 proteins [6] = biological target: T3, recombinant CD3 proteins; test: Octet BLI, recombinant CD3; Full R^2 0.986

T1 sequence (P07766 23-126, stated change not applied, chain 1 of 2): as the sequence (P07766 23-126, chain 1 of 2) above
T1 sequence (P04234 22-105, stated change not applied, chain 2 of 2): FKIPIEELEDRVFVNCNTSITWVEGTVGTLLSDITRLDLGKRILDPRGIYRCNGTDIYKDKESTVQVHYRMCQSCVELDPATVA

B1: ABL-CD3-13 (antibody, V domains shown)
VH: EVQLVESGGGLVQPGGSLRLSCAASGFTFSNYWMSWVRQAPGKGLEWVANIKEDGSEKYYVDSVKGRFTISRDNAKNSLYLQMNSLTAEDTSVYYCARERRTGYFDYWGQGTLVTVSS
VL: DIQMTQSPSTLSASVGDRVTITCRASQSISNWLAWYQQKPGKAPNLLIYKASSLESGVPSRFSGSGSGTEFTLTISSLQPDDFANYYCQQYKSYSWTFGQGTKVEIK
notes: Chimeric hybridoma mAb: human V, CH1, upper hinge; mouse middle hinge, CH2, CH3
- Kd [1]: 23.4 nM
- Response [1]: 0.08
- koff [1]: 0.000728 s⁻¹
- kon [1]: 31200 M⁻¹ s⁻¹
- Kd [2]: < 0.001 nM
- koff [2]: < 1e-07 s⁻¹
- kon [2]: 26700 M⁻¹ s⁻¹

B2: CD3 × CD33-BspAb117 (bispecific antibody)
chain 1: NFMLTQPHSVSESPGKTVTISCTRSSGSIASNYVQWYQQRPGSSPTSVIYEDNQRPSGVPDRFSGSIDSSSNSASLTISGLKTEDEADYYCQSYDRSNRVFGCGTKLTVLGGGGSGGGGSGGGGSGGGGSEVQLVESGGGLVKPGGSLRLSCAASGLTFSTYSMNWVRQAPGKCLEWVSSISSSGSYVYYADSVKGRFTMSRDNAKNSLYLQMNSLRAEDTAVYYCARERRELLFDYWGQGTLVTVSSDKTHTCPPCPAPEFEGGPSVFLFPPKPKDTLMISRTPEVTCVVVDVSHEDPEVKFNWYVDGVEVHNAKTKPREEQYNSTYRVVSVLTVLHQDWLNGKEYKCKVSNKALPASIEKTISKAKGQPREPQVYTLPPCREEMTKNQVSLWCLVKGFYPSDIAVEWESNGQPENNYKTTPPVLDSDGSFFLYSKLTVDKSRWQQGNVFSCSVMHEALHNHYTQKSLSLSPGK
chain 2: EVQLVQSGAEVKKPGSSVKVSCKASGYTITDSNIHWVRQAPGQSLEWIGYIYPYNGGTDYNQKFKNRATLTVDNPTNTAYMELSSLRSEDTAFYYCVNGNPWLAYWGQGTLVTVSSASTKGPSVFPLAPSSKSTSGGTAALGCLVKDYFPEPVTVSWNSGALTSGVHTFPAVLQSSGLYSLSSVVTVPSSSLGTQTYICNVNHKPSNTKVDKRVEPKSCDKTHTCPPCPAPEFEGGPSVFLFPPKPKDTLMISRTPEVTCVVVDVSHEDPEVKFNWYVDGVEVHNAKTKPREEQYNSTYRVVSVLTVLHQDWLNGKEYKCKVSNKALPASIEKTISKAKGQPREPQVCTLPPSREEMTKNQVSLSCAVKGFYPSDIAVEWESNGQPENNYKTTPPVLDSDGSFFLVSKLTVDKSRWQQGNVFSCSVMHEALHNRFTQKSLSLSPGK
chain 3: DIQLTQSPSTLSASVGDRVTITCRASESLDNYGIRFLTWFQQKPGKAPKLLMYAASNQGSGVPSRFSGSGSGTEFTLTISSLQPDDFATYYCQQTKEVPWSFGQGTKVEVKRTVAAPSVFIFPPSDEQLKSGTASVVCLLNNFYPREAKVQWKVDNALQSGNSQESVTEQDSKDSTYSLSSTLTLSKADYEKHKVYACEVTHQGLSSPVTKSFNRGEC
- Kd (recombinant CD3 proteins [3]): 16.6 nM
- koff (recombinant CD3 proteins [3]): 0.00554 s⁻¹
- kon (recombinant CD3 proteins [3]): 335000 M⁻¹ s⁻¹

B4: CD3 × CD33-BspAb118 (bispecific antibody)
chain 1: FMLTQPHSVSESPGKTVTISCTRSSGSIASNYVQWYQQRPGSSPTTVIYEDNQRPSGVPDRFSGSIDSSSNSASLTISGLQTEDEADYYCQSYDSSNRVFGCGTKLTVLGGGGSGGGGSGGGGSGGGGSEVQLVESGGGLVKPGGSLRLSCVASGFTFSRYSMNWVRQAPGKCLEWVSSISSSSRYTYYADSLKGRFIMSRDNAKNSLFLQMNSLRAEDTAVYYCARNLYNALDYWGQGTLVTVSSDKTHTCPPCPAPEFEGGPSVFLFPPKPKDTLMISRTPEVTCVVVDVSHEDPEVKFNWYVDGVEVHNAKTKPREEQYNSTYRVVSVLTVLHQDWLNGKEYKCKVSNKALPASIEKTISKAKGQPREPQVYTLPPCREEMTKNQVSLWCLVKGFYPSDIAVEWESNGQPENNYKTTPPVLDSDGSFFLYSKLTVDKSRWQQGNVFSCSVMHEALHNHYTQKSLSLSPGK
chain 2: EVQLVQSGAEVKKPGSSVKVSCKASGYTITDSNIHWVRQAPGQSLEWIGYIYPYNGGTDYNQKFKNRATLTVDNPTNTAYMELSSLRSEDTAFYYCVNGNPWLAYWGQGTLVTVSSASTKGPSVFPLAPSSKSTSGGTAALGCLVKDYFPEPVTVSWNSGALTSGVHTFPAVLQSSGLYSLSSVVTVPSSSLGTQTYICNVNHKPSNTKVDKRVEPKSCDKTHTCPPCPAPEFEGGPSVFLFPPKPKDTLMISRTPEVTCVVVDVSHEDPEVKFNWYVDGVEVHNAKTKPREEQYNSTYRVVSVLTVLHQDWLNGKEYKCKVSNKALPASIEKTISKAKGQPREPQVCTLPPSREEMTKNQVSLSCAVKGFYPSDIAVEWESNGQPENNYKTTPPVLDSDGSFFLVSKLTVDKSRWQQGNVFSCSVMHEALHNRFTQKSLSLSPGK
chain 3: DIQLTQSPSTLSASVGDRVTITCRASESLDNYGIRFLTWFQQKPGKAPKLLMYAASNQGSGVPSRFSGSGSGTEFTLTISSLQPDDFATYYCQQTKEVPWSFGQGTKVEVKRTVAAPSVFIFPPSDEQLKSGTASVVCLLNNFYPREAKVQWKVDNALQSGNSQESVTEQDSKDSTYSLSSTLTLSKADYEKHKVYACEVTHQGLSSPVTKSFNRGEC
- Kd (recombinant CD3 proteins [5]): 1.91 nM
- koff (recombinant CD3 proteins [5]): 0.000767 s⁻¹
- kon (recombinant CD3 proteins [5]): 403000 M⁻¹ s⁻¹

The next lines start with the values.

- Kd (recombinant CD3 proteins [4]): 69 nM
- koff (recombinant CD3 proteins [4]): 0.0189 s⁻¹
- kon (recombinant CD3 proteins [4]): 274000 M⁻¹ s⁻¹
B3: CD3 × CD33-BspAb120 (bispecific antibody)
chain 1: NFMLTQPHSVSESPGKTVAISCTRSSGSIASNYVQWYQQRPGSSPTAVIYEDNQRPSGVPDRFSGSIDSSSNSAFLTISGLKTEDEADYYCQSYDSSNRVFGCGTKLTVLGGGGSGGGGSGGGGSGGGGSEVQLVESGGGLVKPGGSLRLSCAASGFTFSSYSMNWVRQAPGKCLEWVSSISRSSGYIFYADSVKGRFTISRDNAKNSLYLQMNSLRAEDTAVYYCVRERVGAGFDYWGQGTLVTVSSDKTHTCPPCPAPEFEGGPSVFLFPPKPKDTLMISRTPEVTCVVVDVSHEDPEVKFNWYVDGVEVHNAKTKPREEQYNSTYRVVSVLTVLHQDWLNGKEYKCKVSNKALPASIEKTISKAKGQPREPQVYTLPPCREEMTKNQVSLWCLVKGFYPSDIAVEWESNGQPENNYKTTPPVLDSDGSFFLYSKLTVDKSRWQQGNVFSCSVMHEALHNHYTQKSLSLSPGK
chain 2: EVQLVQSGAEVKKPGSSVKVSCKASGYTITDSNIHWVRQAPGQSLEWIGYIYPYNGGTDYNQKFKNRATLTVDNPTNTAYMELSSLRSEDTAFYYCVNGNPWLAYWGQGTLVTVSSASTKGPSVFPLAPSSKSTSGGTAALGCLVKDYFPEPVTVSWNSGALTSGVHTFPAVLQSSGLYSLSSVVTVPSSSLGTQTYICNVNHKPSNTKVDKRVEPKSCDKTHTCPPCPAPEFEGGPSVFLFPPKPKDTLMISRTPEVTCVVVDVSHEDPEVKFNWYVDGVEVHNAKTKPREEQYNSTYRVVSVLTVLHQDWLNGKEYKCKVSNKALPASIEKTISKAKGQPREPQVCTLPPSREEMTKNQVSLSCAVKGFYPSDIAVEWESNGQPENNYKTTPPVLDSDGSFFLVSKLTVDKSRWQQGNVFSCSVMHEALHNRFTQKSLSLSPGK
chain 3: DIQLTQSPSTLSASVGDRVTITCRASESLDNYGIRFLTWFQQKPGKAPKLLMYAASNQGSGVPSRFSGSGSGTEFTLTISSLQPDDFATYYCQQTKEVPWSFGQGTKVEVKRTVAAPSVFIFPPSDEQLKSGTASVVCLLNNFYPREAKVQWKVDNALQSGNSQESVTEQDSKDSTYSLSSTLTLSKADYEKHKVYACEVTHQGLSSPVTKSFNRGEC

- Kd (recombinant CD3 proteins [6]): 21.7 nM
- koff (recombinant CD3 proteins [6]): 0.00688 s⁻¹
- kon (recombinant CD3 proteins [6]): 317000 M⁻¹ s⁻¹
B5: CD3 × CD33-BspAb119 (bispecific antibody)
chain 1: NFMLTQPHSVSESPGKTVTISCTRSSGSIASNYVQWYQQRPGSSPTTVIYEDNQRPSGVPDRFSGSIDSSSNSASLTISGLKTEDEADYYCQSYDSSNRVFGCGTKLTVLGGGGSGGGGSGGGGSGGGGSEVQVAESGGGLVKPGGSLRLSCAASGFTFSRYSMNWVRQAPGKCLEWVSSISSSGSYTYYADSVKGRFTISRDNAKNSLYLQMNSLRAEDTAVYYCVRERGKGAGMDVWGQGTTVTVSSDKTHTCPPCPAPEFEGGPSVFLFPPKPKDTLMISRTPEVTCVVVDVSHEDPEVKFNWYVDGVEVHNAKTKPREEQYNSTYRVVSVLTVLHQDWLNGKEYKCKVSNKALPASIEKTISKAKGQPREPQVYTLPPCREEMTKNQVSLWCLVKGFYPSDIAVEWESNGQPENNYKTTPPVLDSDGSFFLYSKLTVDKSRWQQGNVFSCSVMHEALHNHYTQKSLSLSPGK
chain 2: EVQLVQSGAEVKKPGSSVKVSCKASGYTITDSNIHWVRQAPGQSLEWIGYIYPYNGGTDYNQKFKNRATLTVDNPTNTAYMELSSLRSEDTAFYYCVNGNPWLAYWGQGTLVTVSSASTKGPSVFPLAPSSKSTSGGTAALGCLVKDYFPEPVTVSWNSGALTSGVHTFPAVLQSSGLYSLSSVVTVPSSSLGTQTYICNVNHKPSNTKVDKRVEPKSCDKTHTCPPCPAPEFEGGPSVFLFPPKPKDTLMISRTPEVTCVVVDVSHEDPEVKFNWYVDGVEVHNAKTKPREEQYNSTYRVVSVLTVLHQDWLNGKEYKCKVSNKALPASIEKTISKAKGQPREPQVCTLPPSREEMTKNQVSLSCAVKGFYPSDIAVEWESNGQPENNYKTTPPVLDSDGSFFLVSKLTVDKSRWQQGNVFSCSVMHEALHNRFTQKSLSLSPGK
chain 3: DIQLTQSPSTLSASVGDRVTITCRASESLDNYGIRFLTWFQQKPGKAPKLLMYAASNQGSGVPSRFSGSGSGTEFTLTISSLQPDDFATYYCQQTKEVPWSFGQGTKVEVKRTVAAPSVFIFPPSDEQLKSGTASVVCLLNNFYPREAKVQWKVDNALQSGNSQESVTEQDSKDSTYSLSSTLTLSKADYEKHKVYACEVTHQGLSSPVTKSFNRGEC
